Experimental data as given in paper PMC6908506, “Development of Foot-and-Mouth Disease Virus-Neutralizing Monoclonal Antibodies Derived From Plasmablasts of Infected Cattle and Their Germline Gene Usage” (Frontiers in Immunology, 2019).

B1: F28 (antibody, V domains shown)
VH: QVQLRESGPSLVKPSQTLSLTCTVSGFSLNTYSVYWVRQVPGKALECIGGISSREARGYNPALKPRLSITKDNSKSQVSLSLSSVTTDDTATYYCAKAARGYAFTCGGISSHSDHYVDAWGQGLLVTVSS
VL: QAVLTQPSSVSGSLGQRVSISCSGSSSNVGTGNHVSWFQQIPGSAPRTLIYGATRRLSGVPDRFSGSRSGNTATLTISSLQAEDEADYFCASWQSDSTTVFGSGTTLTVL
B2: B66 (antibody, V domains shown)
VH: QVQLRESGPSLVKPSQTLSLTCTVSGFSLTTYSVNWVRQTPGKALECLGGITSGGNAYYQPSLKSRLSITKDNSKNQVSLSINSATPEDTATYYCGKLSGTGVCEGGCACGHDPHVDAWGQGVLVTVSS
VL: QAVLTQPSSVSGSLGQRISITCSGSSNNVGLYNVGWYQQIPGSGLRTIIYAGDRRPSGVPDRFSGSEFGDTATLTISSLQAEDEADYFCVTYDSTISAAVFGSGTTLTVL
B3: B57 (antibody, V domains shown)
VH: QVQLRESGPSLVKPSQTLSLTCTVSGFSLSGYAVTWVRRAPGQALECLGGISRGGLTNNNPALRSRVSITKDDSKSQVSLSVSTVTPEDTATYYCVRLGATKFGDYGCYGYGLYVDTWGQGLPVTVSS
VL: QAVLTQPSSVSGSLGQRVSITCSGSSSNIGRHGVSWYQQVPGSGLRTIIYSGNSRPSGVPDRFSGSKSGNTATLTISSLLAEDEADYFCAADDIVSRTTFFGSVTTLTVL
B4: F128 (antibody, V domains shown)
VH: QVQLRESGPSLVKPSQTLSLTCTVSGFSLGTYTVTWVRQAPGKALEWVGEISGGGDTDYNPALKSRLSITKHNSKSQVSLSVSSVTPEDTATYYCARCYSTCGCGLSCTSEDSYYVNAWGQGLLVTVSS
VL: QAVLTQPSSVSGSLGQRVSITCSGSSSNIGSYNVGWYQQVPGSGLTTIIYGTNNRPSGVPDRFSGSKSGNTATLTISSLRAEDEADYFCVTYDSTSSTIFGTGTTLTVL
B5: B77 (antibody, V domains shown)
VH: QVQLRESGPSLVKPSQTLSLTCTISGFSLSSYTIGWVRQAPGKALEWIGDMSNGGMPYYNPALKSRLSITKHNSKSQVRLSVSSVTPEDTATYYCAKSRYTGDGSIGLYGVDAWGQGLLITVSS
VL: QAVLTQPSSVSGSLGQRVSITCSGTYSNVGTGNYVSWFQQIPGSAPRTLIYSVTNRASGVPDRFSGSRSGHTATLTISSLQAEDEADYFCLSWQSGNTALFGSGTTLTVL
B6: A19 (antibody, V domains shown)
VH: QVQLRESGPSLVKPSQTLSLTCTTSGFSLSSYAVGWVRQAPGKALEWVGGISSGGKTCPSPALKTRLSITKLNSRGQVSLSVGSVSTEDTATYYCVKFFSGGWTYSCYGIDFGSVDAWGQGVLVTVSS
VL: QAVLTQPSSVSGSLGQRVSITCSGSSNNIGSYGVGWYQQVPGSGLRTIIYGSTSRPSGVPDRFSGSKSGNTATLTISSLQAEDEADYFCAAGDDSSSSVDVFGSGTTLTVL
B7: C4 (antibody, V domains shown)
VH: QVQLRESGPSLVKPSQTLFLTCTVSGFSLTSYSVNWVRQTPGKMLECLGGIATSGSTGYNPVLKSRLRITKDNSKSQVSLSVSNVTPEDTATYYCAKWSSRGGYDCGVHSSDYSYLDAWGQGLLVTVSS
VL: QAVLTQPSSVSASLGQRVSITCSGSSSNIGRYGATWYQQVPGSGLRTIIYGSSRRPSGVPDRFSGSKSGNTVTLTISSLQPEDEADYFCAAYDISTNAVFGSGTTLTLL
B8: B74 (antibody)
VH: QVQLRESGPGLVKPSQTLSLTCTASGFSLSIKAVGWVRQAPGKALEWLGSIDTGGNTGYNPGLKSRLSITKDNSKSQVSLSLSSVTTEDSATYYCATVHQETKKSCSDGYYYRNECGAYGDCTVGNCCCSYASDYCNWCDFRRVTPTYTYEHHVEAWGQGLLVTVSS
VL: QAVLTQPSSVSGSLGQRVSITCSGSSGNVGNGYVSWYQLIPGSAPRTLIYGDTTRVSGVPDRFSGSRSGNTATLTISSLQAEDEADYFCASAEDSSNNAVFGSGTTLTVL
B9: E50 (antibody)
VH: QVQLRESGPSLVKPSQTLSLTCTASGFSLSDKAVGWVRQAPGKALEWLGSVDTSGSTGYNPGLESRLIITKDNSKSRVSLSVHSVTSEDSATYYCVTVHQKSRDEKSCPDGYIDGAGCKYGWPCSDQDCCVCSSCVYGYSGMNCVPARYSESYEWNVEAWGQGLLVTVSS
VL: QAVLTQPSSVSGSLGQRVSITCSGSSTNVGNGYVSWYQLIPGSAPRTLIYGDTTRASGVPDRFSGSRSGNTATLTISSLQAEDEADYSCASAEDSSSNAVFGSGTTLTVL
B10: F103 (antibody)
VH: QVQLRESGPSLVKPSQTLSLTCTASGFSLSDKAVGWVRQAPGKALEWLGSIDTGGNSGYNPGLKSRLSITKDNSKSQASLSVSSVITGDSATYYCAIVHQETVRKTSGSDAYTCPDGCVLSPACSRERRCLCGTWPRDYCVDHIQSSTYNFYVEAWGQGLLVTVSS
VL: QAVLTQPSSVSESLGQRVSITCSGISSSVGNGYVSWYQLIPGSAPRTLIYGDTSRASGVPDRFSGSRSGNTATLTISSLQAEDEADYFCASADGSSSNAIFGSGTTLTVL
B11: B83 (antibody)
VH: QVQLRESGPSLVKPSQTLSLTCTASGFSLSDKAVGWVRQAPGKALEWLGSIDTGGSTGYNPGLKSRLSITKDTSKTQVSLSVSSVTTEDSATYYCTNVHQKTTTERSCPDLGYKYECGNNCCWYSSCRGCIQGTYTSTYNFYVHAWGQGLRVTVSS
VL: QAVLTQPSSVSGSLGQRVSITCSGSSSNVGNGYVSWYQLIPGSGPRTLIYGDTSRASGVPDRFSGSRSGNTATLTISSLQAEDEADYFCASTEDSSSNVVFGSGTTLTVL
B12: E34 (antibody, V domains shown)
VH: QVQLRESGPSLVKPSQTLSLTCTVSGFSLNDYNVGWVRQAPGKALECLGGYKADGSTNYNSALKSRLSITKDSSKKQVSLSLSSVTTEDTATYYCAKCPSRWGCDYCDNYDFWGQGLLVTVSS
VL: QAVLTQPSSVSGSLGQRVSITCSGSSSDVGKGYVSWYQLMPGSGPRTLIYGDTSRISGVPDRFSGSRSGNTATLTISSLQAEDEADYFCASADDSSSNAVFGSGTTLTVL
B13: E54 (antibody)
VH: QVHLRESGPSLVKPSQTLSLTCTASGFSLSDRAVGWVRQAPGKALEWLGSIDTGGTTGYNPGLKSRLRITKDNSKSQVSLSVSTVTTDDSATYYCGAVYQTTETKTTCPEGYSNTGDCDDDCCCWGSDCSRYARWKRYRGGWFSSDYIVTEVYEFHVDAWGQGLLVSVSS
VL: QAVLTQPSSVSGSLGQRVSITCSGSSSNVGNGYVSWYQLIPGSTPRTLIYGDTSPASGVPDRFSGSRSGNTATLTIISFQAEDEADYFCASAEDSSSNVVFGSGTTLTVL
B14: F169 (antibody, V domains shown)
VH: QVQLRESGPSLVKPSQTLSLTCTVSGFSLSTYGVAWVRQAPGKALEWIGGISGRGSGSEYYNPPLQSRLSITKDTSRSQVFLSVRTVAPEDTATYYCVKCIDSWCNYDDSGDIDAWGQGLLVTVSS
VL: QAVLTQPSSVSGSLGQRVSITCSGSTSNIGKCDVGWYQRVPESGLRTIIYGNSKRPSGVPDRFSGSKSGTVATLTISSLQAEDEAEYFCATGDYSLRTAVFGSGTTLIVL
B15: A35 (antibody, V domains shown)
VH: QVQLRESGPSLVKPSQTLSLTCTVSGFSLSSNGVIWVRQAPGKALEWLGGICGGGSTSFNPSLKSRLTITKDNSKNQVSLSVRSVTPEDTATYYCARSCGSYRDAWYDCASDGYRYHNYVDAW
VL: QAVLTQPSSVSGSLGQRVSITCSGSNNNIGSYAVGWYQQVPGSGLRTIIYGSTIRPSGVPDRFSGSKSRSTATLTISSLQAEDEADYFCATADYSSSTVVFGSGTTLTVL
B16: C5 (antibody, V domains shown)
VH: QVQLRESGPSLVKPSQTLSLTCTVSGFSLSSYGVGWVRQAPGRALEFLADIYSDGSTTYNLALKSRLSIMKDNSKSEVSLSLSSVTTEDTATYYCAKSSRGVGWGDGLHYNENDAGAWGQGLLVTVSS
VL: QAVLSQPPSVSGSLGQTVTIPCTGSSNNIGILGVSWYQQIPGSAPRTLVYNNNKRPSGVADRFSGTKSGNTGTLTIASLQAEDEADYYCASADPNFGGGTRVTVL
B17: B82 (antibody, V domains shown)
VH: QVQLRESGPSLVKPSQTLSLTCTVSGFSLSNYAVGWVRQAPGKALEYLGGVRLRGRPDYNPALESRLSITKDNSKSQVSLSVSSVTLEDTATYYCAKSSSGLWDGGCCGGSTSCYVDSWGQGLLVTVSS
VL: QAVLTQPSSVSGSLGQRVSITCSGSSSNIGTYTVGWYQQVPGSGLRTIIYSNNNRPSGVPDRFSGSKSGNTATLTISSLQAEDEADYFCVTYESSISTALFGRGTTLTVL
B18: B73 (antibody, V domains shown)
VH: QVQLRESGPSLVKPSQTLSLTCTVSGFSLSSYDVGWVRQAPGKALECLGSITNRGKTGYNPALKSRLSITKDNSKSQVSLSLNSVTTEDTATYYCAKLNSGGYGIDGNGCYAFGSNYNLYVDAWGQGLLITVSS
VL: QAVLTQPSSVSGSLGQRVSITCSGSSSNLGTYNVGWYQQVPGSGLRTIIYGSSSRPSGVPDRFSGSRSGNTATLTISSLQAEDEADYFCTAYDHSISTAVSGSGTTLTVL
B19: E18 (antibody, V domains shown)
VH: QVQLRESGPSLVTPSQTLSLTCAVSGGSLSTHDVVWVRQAPGRALEWVGGISSRGTTYYNPALKSRLSITQDLSKNQVSLSVGSVTPDDTATYYCAKDLCGGRINGCYNDGYYYSLRVDAWGQGLLVTVSS
VL: QAVLAQPSSVSGSLGQRVSITCSGSSNNIGSYGVGWYQQVPGSGLRTIIYGSSNRPSGVPDRFSGSKSGNTATLTISSLQAEDEADYFCAASDYSSNTVVFASGTTLTVL
B20: C9 (antibody, V domains shown)
VH: QVQLRESGPSPVKPSQTLSLTCTVSGFSLSSYAVAWVRQAPGKALEWVAGISGGGSTSYNAALKSRLRITKDNSKSQVALSLSSVTSEDTATYYCVKCANDYGSYFCYNYDYGYDFYVDAWGQGLLVTVSS
VL: QAVLTQPSSVSGSLGQRVSITCAGSSSNIGTYSVGWYQQVPGSGLTTIIYETTGRPKGVPDRFSGSKSGNTATLTITSLQAEDEADYFCVTYELGSGAVFGSGTTLTVL

The binders below were run against FMDV O/Mya/98 146S antigen (Foot-and-mouth disease virus serotype …, UniProt G8JKC2, strain) (assay: cell-based or functional assay).

Row | Binder | virus neutralizing test on BHK-21 cells, IC50
1 | B1 | 3.33 µg/mL
2 | B2 | 3.13 µg/mL
3 | B3 | 2.6 µg/mL
4 | B4 | 0.98 µg/mL
5 | B5 | 3.91 µg/mL
6 | B6 | 17.9 µg/mL
7 | B7 | 2.86 µg/mL
8 | B8 | 7.81 µg/mL
9 | B9 | 11.5 µg/mL
10 | B10 | 6.22 µg/mL
11 | B11 | 12.2 µg/mL
12 | B12 | 3.13 µg/mL
13 | B13 | 3.65 µg/mL
14 | B14 | 5.56 µg/mL
15 | B15 | 1.43 µg/mL
16 | B16 | 4.69 µg/mL
17 | B17 | 4.17 µg/mL
18 | B18 | 3.28 µg/mL
19 | B19 | 0.78 µg/mL
20 | B20 | 1.82 µg/mL
